US20240084023A1 (NGM BIOPHARMACEUTICALS, published 2024)

Assays:
Test in all cases: flow cytometry on transfected 293XP cells
[1] = target: T1, GCGR extracellular domain alanine mutant R108A (human, UniProt P47871 26-136, limits assumed)
T1 construct: expressed in 293XP cells
T1 chain: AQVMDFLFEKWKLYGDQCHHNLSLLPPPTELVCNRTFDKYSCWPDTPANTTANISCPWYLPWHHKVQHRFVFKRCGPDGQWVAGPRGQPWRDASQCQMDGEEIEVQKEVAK
Description: (§1) To assist in gathering information on the GCGR epitope that the 6B5 binning group bound to, “alanine scanning mutagenesis” was undertaken. These alanine scanning mutagenesis platform is a technique used for mapping both linear and conformational antigen epitopes by evaluating the effects of point mutations across a target protein. Single residues in a target protein are replaced by alanine one at a time to construct a mutant library. Each variant is assayed for its ability to bind to an antibody of interest. […] Amino acids across the extracellular domain of GCGR were mutated to alanine and the anti-GCGR antibody Hz6B5 was tested for binding to the alanine mutants.
(§2) The wild-type GCGR extracellular domain and the alanine mutants were each transfected into 293XP cells and incubated for 24 hours. Antibody Hz6B5 was incubated with the transfected cells for 30 minutes at 4° C. After washing with PBS/1% BSA/0.1% azide, the cells were incubated with a labeled anti-mouse Fc antibody (Jackson Immunoresearch) for 30 minutes at 4° C. After washing with PBS/1% BSA/0.1% azide, the cells were analyzed using a flow cytometer BD (FACSCalibur instrument) and cytometric analytical software (FlowJo). A serum sample from a mouse immunized with human GCGR was used as positive control to confirm expression of the alanine mutants.

[2] = target: T2, GCGR extracellular domain alanine mutant P110A (human, UniProt P47871 26-136, limits assumed)
T2 construct: expressed in 293XP cells
T2 chain: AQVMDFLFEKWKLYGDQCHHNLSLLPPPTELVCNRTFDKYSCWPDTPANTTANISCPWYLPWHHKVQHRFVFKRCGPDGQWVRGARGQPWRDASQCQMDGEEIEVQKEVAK
Description: as §1, §2

[3] = target: T3, GCGR extracellular domain alanine mutant K64A (human, UniProt P47871 26-136, limits assumed)
T3 construct: expressed in 293XP cells
T3 chain: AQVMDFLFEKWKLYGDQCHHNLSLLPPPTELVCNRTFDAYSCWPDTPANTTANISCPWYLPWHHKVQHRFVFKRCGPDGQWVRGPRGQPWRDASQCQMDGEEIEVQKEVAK
Description: as §1, §2

[4] = target: T4, GCGR extracellular domain alanine mutant D41A (human, UniProt P47871 26-136, limits assumed)
T4 construct: expressed in 293XP cells
T4 chain: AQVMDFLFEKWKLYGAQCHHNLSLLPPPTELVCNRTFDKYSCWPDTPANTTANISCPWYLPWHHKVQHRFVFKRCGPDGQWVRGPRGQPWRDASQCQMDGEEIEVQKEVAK
Description: as §1, §2

[5] = target: T5, GCGR extracellular domain alanine mutant Y39A (human, UniProt P47871 26-136, limits assumed)
T5 construct: expressed in 293XP cells
T5 chain: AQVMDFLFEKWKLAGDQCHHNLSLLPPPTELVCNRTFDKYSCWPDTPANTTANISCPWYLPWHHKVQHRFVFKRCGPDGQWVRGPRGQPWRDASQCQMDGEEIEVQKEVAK
Description: as §1, §2

[6] = target: T6, GCGR extracellular domain alanine mutant R111A (human, UniProt P47871 26-136, limits assumed)
T6 construct: expressed in 293XP cells
T6 chain: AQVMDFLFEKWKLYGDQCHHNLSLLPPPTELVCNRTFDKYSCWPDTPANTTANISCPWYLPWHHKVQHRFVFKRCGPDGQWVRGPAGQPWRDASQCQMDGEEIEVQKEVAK
Description: as §1, §2

[7] = target: T7, GCGR extracellular domain alanine mutant Y65A (human, UniProt P47871 26-136, limits assumed)
T7 construct: expressed in 293XP cells
T7 chain: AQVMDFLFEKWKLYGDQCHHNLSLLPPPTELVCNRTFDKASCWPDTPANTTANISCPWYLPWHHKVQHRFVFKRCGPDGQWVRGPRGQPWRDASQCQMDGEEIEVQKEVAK
Description: as §1, §2

[8] = target: T8, GCGR extracellular domain alanine mutant Y84A (human, UniProt P47871 26-136, limits assumed)
T8 construct: expressed in 293XP cells
T8 chain: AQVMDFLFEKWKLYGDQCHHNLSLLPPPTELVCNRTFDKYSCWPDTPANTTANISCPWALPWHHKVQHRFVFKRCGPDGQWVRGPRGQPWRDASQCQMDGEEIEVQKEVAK
Description: as §1, §2

[9] = target: T9, GCGR extracellular domain alanine mutant H44A (human, UniProt P47871 26-136, limits assumed)
T9 construct: expressed in 293XP cells
T9 chain: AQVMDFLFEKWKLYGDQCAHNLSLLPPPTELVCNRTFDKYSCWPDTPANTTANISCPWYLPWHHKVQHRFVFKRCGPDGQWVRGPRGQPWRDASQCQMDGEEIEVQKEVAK
Description: as §1, §2

[10] = target: T10, GCGR extracellular domain alanine mutant F31A (human, UniProt P47871 26-136, limits assumed)
T10 construct: expressed in 293XP cells
T10 chain: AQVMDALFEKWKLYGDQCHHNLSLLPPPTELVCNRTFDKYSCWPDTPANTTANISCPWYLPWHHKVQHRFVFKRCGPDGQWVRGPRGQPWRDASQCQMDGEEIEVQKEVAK
Description: as §1, §2

[11] = target: T11, wild-type GCGR extracellular domain expressed in 293XP cells (human, UniProt P47871 26-136, limits assumed)
T11 construct: transfected into 293XP cells; also called WT GCGR
Description: as §1, §2

[12] = target: T12, GCGR extracellular domain alanine mutant R94A (human, UniProt P47871 26-136, limits assumed)
T12 construct: expressed in 293XP cells
T12 chain: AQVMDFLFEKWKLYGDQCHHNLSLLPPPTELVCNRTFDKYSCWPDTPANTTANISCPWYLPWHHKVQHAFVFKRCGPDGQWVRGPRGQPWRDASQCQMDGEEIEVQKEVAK
Description: as §1, §2

[13] = target: T13, GCGR extracellular domain alanine mutant L32A (human, UniProt P47871 26-136, limits assumed)
T13 construct: expressed in 293XP cells
T13 chain: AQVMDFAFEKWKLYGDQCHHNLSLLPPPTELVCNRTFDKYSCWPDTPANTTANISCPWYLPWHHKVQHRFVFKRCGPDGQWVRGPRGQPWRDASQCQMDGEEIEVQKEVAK
Description: as §1, §2

B1: anti-GCGR antibody Hz6B5 (antibody, V domains shown)
VH: QVQLVQSGAEVKKPGSSVKVSCKASGFTFTNHWLGWVRQAPGQGLEWIGDIYPGGYYINYNEKFKGRVTITADESTSTAYMELSSLRSEDTAVYYCARHTNYGSDYWGQGTTVTVSS
VL: DVVMTQSPLSLPVTLGQPASISCRSSQSIVDSYGNTFLEWYQQRPGQSPRLLIYKVSNRLSGVPDRFSGSGSGTDFTLKISRVEAEDVGVYYCFQGSHVPWTFGQGTKLEIK
notes: Humanized 6B5
% positive cells [1]: 87% | % positive cells [2]: 84.7% | % positive cells [3]: 87.6% | % positive cells [4]: 84.3% | % positive cells [5]: 65.8% | % positive cells [6]: 84.5% | % positive cells [7]: 64.8% | % positive cells [8]: 63.4% | % positive cells [9]: 82.2% | % positive cells [10]: 85.1% | % positive cells [11]: 87.8% | % positive cells [12]: 0% | % positive cells [13]: 76.9%
